{
  "source": "patent US6022955A",
  "about": "“Fatty acid -- pulmonary surfactant conjugates” (Abbott Laboratories, priority 1991, dated 2000)",
  "type_in_all_cases": "physicochemical",
  "key": {"[1]": {"assay": "Adsorption rate, King-Clements system (Wilhelmy balance, stirred Teflon dish)", "conditions": "10 ml of diluted sample (1:50) added under constant agitation to 70 ml saline subphase; 37° C.; total peptide 0.5 mg/ml", "experimental": "A procedure similar to that described by Notter, et al., Pediatric Res. 16, 515-519, (1982) was employed to determine the absorption rate in the absence of diffusion resistance. The modified Wilhelmy surface balance as described above was used. However, instead of using a Langmuir trough a round Teflon dish (5.1 cm diameter) was employed. The subphase, 70 ml of 0.15 M NaCl, was allowed to equilibrate to 37° C. in the incubator and was continuously stirred with a Teflon coated magnetic stirer. An aliquot of the peptide/lipid admixture containing 5 mg of total phospholipid was dispersed in 10 ml of 0.15 M NaCl by vortexing for 10 seconds. This dispersion was then added to the saline subphase. Surface tension lowering was monitored using a strip chart recorder connected to the electrobalance output and data collected for 20 minutes."}, "[2]": {"assay": "Modified Wilhelmy surface balance (Langmuir trough): dynamic surface tension vs compressed surface area", "conditions": "37° C.; for Equilibrum (equilibrium adsorption value): after a three (3) minute spreading time, total peptide 0.5 mg/ml; for Wilhelmy-Langmuir Trough Max (maximum dynamic surface tension) / Wilhelmy-Langmuir Trough Min (minimum dynamic surface tension): peptide/lipid admixture, total peptide 0.5 mg/ml (2%; two peptides 0.25 mg/ml each), 675 μg phospholipid, seven compression-expansion cycles, average of 3 runs", "text": "The dynamic surface tension lowering properties of the peptide/lipid admixtures were studied using a modified Wilhelmy Surface Balance (Langmuir Trough). The instrument consists of an all Teflon trough and movable Teflon ribbon (dam) barrier system which completely contains and defines a variable surface area. Surface area was varied through the use of a constant rate reversible 3-phase motor to drive the Teflon barrier. A Cahn 2000 electrobalance (Cahn Instruments, Cerittos, Calif.) with a sandblasted 1 cm platinum plate and stainless steel hangdown wire was employed to determine the surface tension at the liquid-air interface. The entire apparatus was situated in a thermostated incubator set at 45° C. Surface area-surface tension measurements were made by adding 950 ml of 0.15 M NaCl to the trough. Subphase temperature was controlled during the measurements at 36-38° C.\nFor each experiment 27 ul of peptide/lipid admixture was applied in a random array of 13 (.congruent.2 ul) droplets to the surface of the temperature controlled subphase and allowed to spread spontaneously for 3 minutes. (The 27 ul application corresponds to 675 ug of phospholipid). The trough surface area was then cycled from a maximum (445 sq. cm) to a minimum (178 sq. cm) surface area and back to maximum at a cycling rate of 3 cycles/min (compression ratio 2.5:1). The dynamic surface tension vs surface area was recorded for 7 complete compression-expansion cycles for each application."}, "[3]": {"assay": "Pulsating bubble surfactometer (PBS)", "conditions": "after 100 cycles (5 minutes, 20 cycles/minute); phospholipid 1 mg/ml; 37° C.; […] NaCl; mean of triplicate", "experimental": "The PBS equipment (Electronetics, Buffalo, N.Y.) used was essentially equivalent to that described in detail by G. Enhorning, J. Appid. Physiol. 43, 198-203, (1977). Recordings were made of the pressure gradient across the wall of a small air bubble, communicating with ambient air by means of a narrow chimney stack, but otherwise entirely surrounded by a 40 ul volume of the peptide/lipid admixture. The admixture concentration employed for these studies was 1 mg/ml total phospholipid (0.02 mg/ml total peptide) and the diluent was 0.15 M NaCl. Immediately prior to loading the sample chamber, the diluted samples were sonicated for 15 seconds to remove any gas nuclei.\nThe pressure drop across the air-water interface was measured during pulsation by a pressure transducer, and the corresponding surface tension determined through the application of Young's law and the Laplace equation. Measurements were all made at 37° C. and the bubble pulsed at 20 cycles/minute to render respectively a maximum (1.1. mm) and a minimum (0.8 mm) bubble diameter. (This compression/expansion corresponds to a 50% change in the surface area of the air-water interface)."}},
  "note": "Ends that are not written are not given here.",
  "data": [
    {"molecule": "SPB (53-78): synthetic C-terminal SP-B fragment (YSVILLDTLLGRMLPQLVCRLVLRCS; ends and bridges not checked; cysteine pairing not given here; UniProt P07988 253-278, looked up, fragment)", "values": [
      {"measurement": "King-Clements Adsorption (surface tension)", "setting": "[1]", "result": 45.0, "unit": "dynes/cm"},
      {"measurement": "Equilibrum (equilibrium adsorption value)", "setting": "[2]", "result": 40.0, "unit": "dynes/cm"},
      {"measurement": "Wilhelmy-Langmuir Trough Max (maximum dynamic surface tension)", "setting": "[2]", "result": 49.3, "unit": "dynes/cm"},
      {"measurement": "Wilhelmy-Langmuir Trough Min (minimum dynamic surface tension)", "setting": "[2]", "result": 0.1, "unit": "dynes/cm"},
      {"measurement": "Surface Tension Values Maximum (pulsating bubble apparatus)", "setting": "[3]", "result": 55.5, "unit": "dynes/cm"},
      {"measurement": "Surface Tension Values Minimum (pulsating bubble apparatus)", "setting": "[3]", "result": 4.9, "unit": "dynes/cm"}
    ]},
    {"molecule": "SPB (1-78): synthetic full length SP-B peptide, sequence based on natural SP-B (peptide, UniProt P07988 201-279, looked up, Pulmonary surfactant-associated protein B) Pulmonary …: FPIPLPYCWLCRALIKRIQAMIPKGALAVAVAQVCRVVPLVAGGICQCLAERYSVILLDTLLGRMLPQLVCRLVLRCSM", "values": [
      {"measurement": "King-Clements Adsorption (surface tension)", "setting": "[1]", "result": 30.0, "unit": "dynes/cm"},
      {"measurement": "Equilibrum (equilibrium adsorption value)", "setting": "[2]", "result": 38.0, "unit": "dynes/cm"},
      {"measurement": "Wilhelmy-Langmuir Trough Max (maximum dynamic surface tension)", "setting": "[2]", "result": 45.0, "unit": "dynes/cm"},
      {"measurement": "Wilhelmy-Langmuir Trough Min (minimum dynamic surface tension)", "setting": "[2]", "result": 0.0, "unit": "dynes/cm"},
      {"measurement": "Surface Tension Values Maximum (pulsating bubble apparatus)", "setting": "[3]", "result": 49.0, "unit": "dynes/cm"},
      {"measurement": "Surface Tension Values Minimum (pulsating bubble apparatus)", "setting": "[3]", "result": 4.2, "unit": "dynes/cm"}
    ]}
  ]
}
